The target in the assay is human steroid 21-hydroxylase (21-OH), 125I-labelled (human) (UniProt P08686). In words: 125I-21-OH + protein A; competitor: autoantibodies in pooled patient sera; irrelevant control Fab.
Chain of UniProt P08686 (P08686 whole entry): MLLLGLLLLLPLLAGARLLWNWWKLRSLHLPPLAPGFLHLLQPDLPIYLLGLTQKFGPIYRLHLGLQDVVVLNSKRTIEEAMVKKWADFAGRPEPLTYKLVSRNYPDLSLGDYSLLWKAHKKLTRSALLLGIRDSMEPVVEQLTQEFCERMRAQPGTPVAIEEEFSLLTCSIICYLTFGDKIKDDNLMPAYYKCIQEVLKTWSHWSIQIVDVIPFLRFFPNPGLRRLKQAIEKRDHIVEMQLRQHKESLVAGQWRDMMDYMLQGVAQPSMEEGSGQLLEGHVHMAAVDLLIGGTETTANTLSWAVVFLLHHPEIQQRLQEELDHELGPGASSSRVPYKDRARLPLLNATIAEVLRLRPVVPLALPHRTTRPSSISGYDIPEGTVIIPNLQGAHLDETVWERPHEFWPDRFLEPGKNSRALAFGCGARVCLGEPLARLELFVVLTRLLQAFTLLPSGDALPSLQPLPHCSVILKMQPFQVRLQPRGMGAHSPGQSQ

Consider “control Fab from a TSH receptor (TSHR) mouse monoclonal antibody”, for which the % inhibition of 125I-21-hydroxylase binding was below 15%.

Values taken from US6342394.
